Source: paper PMC3006652

Molecular target: full-length UvsX (UvsX_(1–391)) (bacteriophage T4) (UniProt P04529)
Assay: non-reducing SDS PAGE

How did the ratio of dimers and monomers under oxidizing conditions turn out when “full-length UvsX (UvsX_(1–391)) (from UniProt P04529 1-391) (natural protein)” was run?
Its ratio of dimers and monomers under oxidizing conditions is 0.5.

What about the stoichiometry N of the same substance?
The stoichiometry N was 2.
